Laboratory results taken from paper PMC3919264, “The crystal structure and biochemical characterization of Kif15: a bifunctional molecular motor involved in bipolar spindle formation and neuronal development” (Acta Crystallographica Section D: Biological Crystallography, 2013).

Target: taxol-polymerized microtubules from bovine brain tubulin (bovine (purified from bovine brain), UniProt Q6B856 1-445)
Experiment: cell-based or functional assay

MT activation of Mant-ADP release, stopped flow, 25°C, various MT concentrations with chasing Mg2+-ATP (MTs here from pig brain tubulin; preliminary data): ~1000 fold
B1: Homo sapiens Kif15 motor domain with cover strand and neck linker (Kif15 1-375) (domain or fragment, human, UniProt Q9NS87 1-375, looked up)
chain: MAPGCKTELRSVTNGQSNQPSNEGDAIKVFVRIRPPAERSGSADGEQNLCLSVLSSTSLRLHSNPEPKTFTFDHVADVDTTQESVFATVAKSIVESCMSGYNGTIFAYGQTGSGKTFTMMGPSESDNFSHNLRGVIPRSFEYLFSLIDREKEKAGAGKSFLCKCSFIEIYNEQIYDLLDSASAGLYLREHIKKGVFVVGAVEQVVTSAAEAYQVLSGGWRNRRVASTSMNRESSRSHAVFTITIESMEKSNEIVNIRTSLLNLVDLAGSERQKDTHAEGMRLKEAGNINRSLSCLGQVITALVDVGNGKQRHVCYRDSKLTFLLRDSLGGNAKTAIIANVHPGSRCFGETLSTLNFAQRAKLIKNKAVVNEDTQG
